In patent US20170137533A1 (published 2017) one finds Kd data, which are given here for 1 molecule.

Among the targets are SC16.39; SC16.51; SC16.46.
Common to all, as to assay: ForteBio
(In BLI a coated tip is dipped into the sample, and binding shifts an interference pattern.)

Sequence of SC16.39 (Q9NYJ7 27-492): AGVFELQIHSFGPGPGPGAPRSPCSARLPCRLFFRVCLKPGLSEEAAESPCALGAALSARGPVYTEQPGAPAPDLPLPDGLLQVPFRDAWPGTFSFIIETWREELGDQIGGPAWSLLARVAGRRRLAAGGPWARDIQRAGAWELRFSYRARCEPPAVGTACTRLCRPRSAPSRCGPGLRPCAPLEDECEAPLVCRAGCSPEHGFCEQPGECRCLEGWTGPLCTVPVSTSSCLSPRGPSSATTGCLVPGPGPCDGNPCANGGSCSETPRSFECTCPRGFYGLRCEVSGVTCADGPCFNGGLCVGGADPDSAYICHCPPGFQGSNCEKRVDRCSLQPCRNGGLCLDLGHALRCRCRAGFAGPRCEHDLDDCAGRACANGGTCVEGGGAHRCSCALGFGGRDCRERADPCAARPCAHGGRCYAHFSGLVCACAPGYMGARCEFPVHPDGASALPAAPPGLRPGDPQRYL
Sequence of SC16.51 (Q9NYJ7 27-492): as above
Sequence of SC16.46 (Q9NYJ7 27-492): as above

B1: DLL3 (ligand)
chain: not shown
For orientation: Kd means a measure of binding affinity in units of concentration. A lower Kd goes with higher affinity. Consider B1, for which the equilibrium dissociation constant (Kd) with SC16.39 was 1 nM; with SC16.51 it was 2 nM; in the test with SC16.46 it was 0.5 nM.
